Several values for one entry are separate records, joined by “and”; a condition that tells them apart may be missing. Identical values can stand only once.
B1: StrepII-Pex14p(M51L) (natural protein, yeast, UniProt P53112 1-341, looked up)
chain: MSDVVSKDRKALFDSAVSFLKDESIKDAPLLKKIEFLKSKGLTEKEIEIALKEPKKDGIVGDEVSKKIGSTENRASQDMYLYEAMPPTLPHRDWKDYFVMATATAGLLYGAYEVTRRYVIPNILPEAKSKLEGDKKEIDDQFSKIDTVLNAIEAEQAEFRKKESETLKELSDTIAELKQALVQTTRSREKIEDEFRIVKLEVVNMQNTIDKFVSDNDGMQELNNIQKEMESLKSLMNNRMESGNAQDNRLFSISPNGIPGIDTIPSASEILAKMGMQEESDKEKENGSDANKDDNAVPAWKKAREQTIDSNASIPEWQKNTAANEISVPDWQNGQVEDSIP
B3: His6-Pex17p (natural protein, yeast, UniProt P40155 1-199, looked up)
chain: MTSINSFPRNIDWPSNIGIKKIEGTNPTVNAIKGLLYNGGSIYAFLYFVIAMFVEPTLQKQYQQRNDFSLFVLLRLRRIIAQLQKRLVMTPVSSLGFNEQNNFVERSTQTSDDNIIREDNSHWAEMIYQLQNMKQELQYFNRSSGQPSESIDDFVFQIKMVTDQVELTDRSRAFSNKSRNIIQGIREIKGWFVNGQVPR

Experiments:
[1] = target: the molecule itself; assay: native MS + SEC-MALS
[2] = target: B3; assay: native MS
[3] = target: the molecule itself; assay: cross-linking
[4] = target: B1; assay: cryo-EM structure

B1
stoichiometry N [1]: 3 copies
stoichiometry N [2]: 3 Pex14p:Pex17p and 6 Pex14p:Pex17p and 4.5 Pex14p:Pex17p

B2: Pex14p_(119-341) (domain or fragment, yeast, UniProt P53112 119-341, looked up)
chain: VIPNILPEAKSKLEGDKKEIDDQFSKIDTVLNAIEAEQAEFRKKESETLKELSDTIAELKQALVQTTRSREKIEDEFRIVKLEVVNMQNTIDKFVSDNDGMQELNNIQKEMESLKSLMNNRMESGNAQDNRLFSISPNGIPGIDTIPSASEILAKMGMQEESDKEKENGSDANKDDNAVPAWKKAREQTIDSNASIPEWQKNTAANEISVPDWQNGQVEDSIP
stoichiometry N [3]: 3

B3
binding result [4]: binds

Reference: doi:10.1101/854497 (bioRxiv, 2020)
